Legend:
Experiment in all cases: EMSA
Settings in all cases: EMSA: 10 mM NaCl, 0.1 mM DTT, 0.1 mM EDTA, 10 mM Tris pH 7.4, 25 C 30 min (22-42 C series in Fig 5C), 20 ng Cy5 probe, poly(dI:dC); footprinting: 400 ng FAM …
[1] = molecular target: T1, RpoE (sigma E) (Vibrio alginolyticus (EPGS)) (UniProt A0A0H0YA85)
T1 sequence: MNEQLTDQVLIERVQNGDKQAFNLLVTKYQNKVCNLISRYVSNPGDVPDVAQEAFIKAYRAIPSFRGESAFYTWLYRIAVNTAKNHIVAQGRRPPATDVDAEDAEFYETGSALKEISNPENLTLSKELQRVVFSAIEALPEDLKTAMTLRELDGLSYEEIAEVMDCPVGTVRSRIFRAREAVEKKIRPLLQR

[2] = test system: T2, AphA (Vibrio alginolyticus (EPGS)), ORF:ebbe691c
T2 sequence: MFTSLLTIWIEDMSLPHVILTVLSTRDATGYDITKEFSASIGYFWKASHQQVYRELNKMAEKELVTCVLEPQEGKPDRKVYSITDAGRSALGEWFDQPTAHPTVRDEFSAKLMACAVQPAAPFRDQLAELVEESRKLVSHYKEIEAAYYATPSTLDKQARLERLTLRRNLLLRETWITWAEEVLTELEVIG

[3] = test system: RpoE (sigma E) (Vibrio alginolyticus (EPGS))

With “AAGATGCTCGCTTGTCAAACTTAGACTAAAGTCAGGCAGCGGTGGTCATTTGGGTACAGACATCACACTGTGAAAAAACAATGACAAAAAACTTGAGAAACCATGGAACTTTCTCATTCACGTTAGGGTCACAATAGTGCTCAAGTAAGCAGTGGTGTCAATACTACGTTTTGCATAATTAGTACCCATATCTGAGAAGAGTAGGGGCATAACAAATAGGAGTATCCGCTCGAATG (double strand) [PrpoE]” the Kd [1] was 76 nM and the binding [1] was “binds”.
For “AGTCGCACGCAAACGATCACCTAATCTTACGGCGTGTAGTGTATCACCACGTTCATTGGGTTGAAAGTCGCATCCTGTTGCCAAAAAATCTTGGAAGAAGGTCTTAGTTTTATAAAGTTCATAGCTAAATTTATCAATAATAATGACATTACTGTATATAAATTGTTCTACAGATGTTGACCTTGTGCATATGCACCATTACACTCATCACTGCTTTAAGCAACTATTAAAATAATCAATTAGGGGGTTACCCCCAATATCAACTCAAATGGCAAGGAAAATGGAT (double strand) [PluxR]”, the Kd [1] was 83 nM, the binding [1] was “binds” and the binding [2] was “binds”.
With PluxR the Kd [3] was 83 nM.
With PrpoE the Kd [3] was 76 nM.
PrpoH showed a Kd [3] of 75 nM.

— PMC4890791
